Laboratory results taken from paper PMC12267109, “The enzyme kinetics of branched‐chain fatty acid synthesis of metazoan fatty acid synthase” (Protein Science : A Publication of the Protein Society, 2025).

What was measured:
[1] = biological target: KS-MAT^S581A didomain of murine FAS (functional MAT knockout) (murine)
[2] = tested on: CC(=O)SCCNC(=O)CCNC(=O)[C@H](O)C(C)(C)COP(=O)(O)OP(=O)(O)OC[C@H]1O[C@@H](n2cnc3c(N)ncnc32)[C@H](O)[C@@H]1OP(=O)(O)O; assay: purified protein; settings: NADPH substrates likely compete in the malonyl-acetyl transferase (MAT) binding pocket

Inhibition constant K i (substrate inhibition on titration of decanoyl-ACP at constant metmal-ACP; KS elongation activity by the enzyme-coupled MabA assay, apparent constant) [1] [µM]	Substance	Km [2] [µM]
270	decanoyl-acyl carrier protein (ACP) (domain or fragment)	
	metazoan fatty acid synthase (mFAS), murine FAS (Mus musculus)	69 ± 12
